Like-named read-outs stand apart in the source and are kept apart here.

In assay [1] the target is CD19 (Homo sapiens (endogenous, Ramos EHRB)) (UniProt P15391). Nature of the assay: flow cytometry on cells; graded concentrations of His-tagged BiTE on Ramos-Fcε (doxycycline-induced), empty-vector Ramos, Jurkat E6-1 or TIB-153 cells, 30 min on ice in 2% BSA-PBS; detected with anti-pentahis-AlexaFluor 488 (Ramos) or 647 (Jurkat, TIB-153); EC50 from geometric mean fluorescence.

The target is the same in assay [2].
Assay [3] shares this target. Kind of assay: flow cytometry on cells; graded concentrations of His-tagged BiTE on Ramos-Fcε (doxycycline-induced), empty-vector Ramos, Jurkat E6-1 or TIB-153 cells, 30 min on ice in 2% BSA-PBS; detected with anti-pentahis-AlexaFluor 488 (Ramos) or 647 (Jurkat, TIB-153); EC50 from geometric mean fluorescence. This is another data set of the same source. For orientation: A flow cytometer gives signals particle by particle.

The target of assay [4] is membrane-bound IgE-Fc (IgE-Fc-B-cell receptor: 3xFLAG-Cε2-Cε3-Cε4-EMPD-transmembrane-intracellular domain). The assay is described as above.
Assay [5] shares this target.
Assay [6] has the same target. The source holds these as a separate data set.
For assay [7] the target is unchanged. The source holds these as a separate data set.

CD19 (Homo sapiens (endogenous, Ramos EHRB)), sequence (P15391 20-556): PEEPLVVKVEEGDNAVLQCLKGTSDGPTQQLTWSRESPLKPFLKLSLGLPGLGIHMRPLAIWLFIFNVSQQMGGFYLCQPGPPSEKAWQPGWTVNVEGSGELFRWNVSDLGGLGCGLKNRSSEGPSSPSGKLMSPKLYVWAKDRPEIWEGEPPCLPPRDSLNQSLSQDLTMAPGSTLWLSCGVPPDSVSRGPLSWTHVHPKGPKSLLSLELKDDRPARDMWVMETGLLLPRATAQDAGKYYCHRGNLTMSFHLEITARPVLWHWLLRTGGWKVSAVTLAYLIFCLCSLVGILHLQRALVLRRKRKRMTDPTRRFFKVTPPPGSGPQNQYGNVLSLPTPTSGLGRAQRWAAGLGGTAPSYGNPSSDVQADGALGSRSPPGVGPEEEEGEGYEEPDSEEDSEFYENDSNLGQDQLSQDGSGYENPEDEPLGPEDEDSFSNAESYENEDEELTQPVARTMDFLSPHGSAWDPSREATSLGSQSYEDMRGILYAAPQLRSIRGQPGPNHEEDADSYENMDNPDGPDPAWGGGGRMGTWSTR

For the substance “blinatumomab (anti-CD19 scFv fused to anti-CD3ε scFv, with C-terminal 8-His-tag) (bispecific antibody)”, the EC50 – broadly, the concentration giving half of the maximal effect – in assay [1] came to 2.5 nM; in assay [3] it was 5 nM. Further, the NFAT-luciferase reporter in CD3-overexpressing T cells with Ramos-Fcε target cells, E:T 5:1, dilutions of blinatumomab from 1 nM; EC50 of T-cell activation in assay [2] was 0.014 nM.
With “ligelizumab-based BiTE (anti-IgE scFv of ligelizumab fused to anti-CD3ε scFv) (bispecific antibody)”, in assay [4], the EC50 amounted to 0.4 nM. In assay [5], the NFAT-luciferase reporter in CD3-overexpressing T cells, fold induction with Ramos-Fcε target cells, E:T 5:1, at 400 pM amounted to 47 fold. The NFAT-luciferase reporter in CD3-overexpressing T cells, fold activation with Ramos-Fcε target cells, E:T 1:1, 400 pM (59-fold) to 2000 pM in assay [6] was found to be 162 fold. In assay [7], this substance yielded an IL-2 promoter-luciferase reporter in CD3-overexpressing T cells, fold specific activation with Ramos-Fcε target cells, E:T 2.5, at 2 nM of 7 fold.
In assay [4], “MEDI4212-based BiTE (anti-IgE scFv of MEDI4212 fused to anti-CD3ε scFv) (bispecific antibody)” registered an EC50 of 0.4 nM. This substance also had an NFAT-luciferase reporter in CD3-overexpressing T cells, fold induction with Ramos-Fcε target cells, E:T 5:1, at 80 pM in assay [5] of 9 fold. The same substance registered an NFAT-luciferase reporter in CD3-overexpressing T cells, fold activation with Ramos-Fcε target cells, E:T 1:1, at 400 pM in assay [6] of 10 fold. For the same substance, the IL-2 promoter-luciferase reporter in CD3-overexpressing T cells, fold activation with Ramos-Fcε target cells, E:T 2.5, at 400 pM in assay [7] is 4 fold.
In turn, “omalizumab-based BiTE (anti-IgE scFv of omalizumab fused to anti-CD3ε scFv) (bispecific antibody)” showed an EC50 in assay [4] of 2 nM. In assay [5], the NFAT-luciferase reporter in CD3-overexpressing T cells, fold induction with Ramos-Fcε target cells, E:T 5:1, at 80 pM was 11 fold. In addition, the NFAT-luciferase reporter in CD3-overexpressing T cells, fold activation with Ramos-Fcε target cells, E:T 1:1, at 80 pM in assay [6] was 5 fold. Moreover, the IL-2 promoter-luciferase reporter in CD3-overexpressing T cells, fold activation with Ramos-Fcε target cells, E:T 2.5, at 400 pM in assay [7] is 2 fold.
With “quilizumab-based BiTE (anti-IgE EMPD scFv of quilizumab fused to anti-CD3ε scFv) (bispecific antibody)”, the EC50 in assay [4] worked out at 40 nM.

These data come from publication PMC8615095.
